Biological target: T1, human SLAM family member 7 (hSLAMF7) expressed on A20-hSLAMF7-GFP cells (human, UniProt Q9NQ25 23-335)
T1 construct: also called CS1; CS1-L
Assay: flow cytometry, 6.25 ug/ml Elotuzumab on A20-hSLAMF7-GFP cells, anti-human IgG-PE secondary
Method: FIG. 3. Elotuzumab binding to hSLAMF7 expressed in A20 cells was confirmed by flow cytometry. A20-GFP or A20-hSLAMF7-GFP cells were incubated with 6.25 ug/ml Elotuzumab (BMS), washed twice and incubated with anti-human IgG-PE secondary antibody. The frequency of cells staining positive for GFP and hSLAMF7 is shown at 0 days.
To determine whether hSLAMF7 expressed in A20 is recognized by Elotuzumab, A20-GFP and A20-hSLAMF7-GFP cells were stained with Elotuzumab. A20-GFP or A20-hSLAMF7-GFP cells were incubated with 6.25 ug/ml Elotuzumab (BMS), washed twice and incubated with anti-human IgG-PE secondary antibody. The frequency of cells staining positive for GFP and hSLAMF7 was determined using flow cytometry.

B1: Elotuzumab (antibody, V domains shown)
VH: EVQLVESGGGLVQPGGSLRLSCAASGFDFSRYWMSWVRQAPGKGLEWIGEINPDSSTINYAPSLKDKFIISRDNAKNSLYLQMNSLRAEDTAVYYCARPDGNYWYFDVWGQGTLVTVSS
VL: DIQMTQSPSSLSASVGDRVTITCKASQDVGIAVAWYQQKPGKVPKLLIYWASTRHTGVPDRFSGSGSGTDFTLTISSLQPEDVATYYCQQYSSYPYTFGQGTKVEIK
notes: also called BMS-901608; HuLuc63
Q: Does B1 bind?
A: binds

— patent US20170355768A1 (Bristol-Myers Squibb, published 2017)
